The target in test [1] is T1, human CCR4 (human, UniProt P51679 1-360).
T1 construct: also called hCCR4; human CCR4+ cells
T1 sequence: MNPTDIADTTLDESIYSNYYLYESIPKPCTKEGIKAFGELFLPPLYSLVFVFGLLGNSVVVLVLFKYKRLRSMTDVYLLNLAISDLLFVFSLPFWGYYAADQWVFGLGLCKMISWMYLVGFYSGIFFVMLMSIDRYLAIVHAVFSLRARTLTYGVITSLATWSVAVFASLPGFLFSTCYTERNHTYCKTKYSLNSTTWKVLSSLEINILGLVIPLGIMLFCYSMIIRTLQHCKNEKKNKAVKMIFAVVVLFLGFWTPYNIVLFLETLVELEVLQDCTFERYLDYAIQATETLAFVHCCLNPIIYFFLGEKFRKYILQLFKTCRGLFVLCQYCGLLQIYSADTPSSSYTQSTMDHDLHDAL
As to the kind of experiment: flow cytometry of purified Fab on cells stably expressing human CCR4. Here is the method: (§1) The positive clones obtained in example 1 were re-induced to express and purified to obtain a Fab antibody. The binding to cells stably expressing human CCR8, cynomolgus monkey CCR8 and human CCR4 was tested respectively, 5×10⁴ test cells were added to each well of a 96-well U-shaped plate and centrifuged to discard the supernatant, 100 μL/well of the purified Fab antibody was added and the mixture was incubated on ice for 60 minutes. After washing away the unbound primary antibody, 50 μL of a secondary antibody solution (Anti-human IgG, F(ab′)2-AF647, Jackson Immuno Research) was added to each well and the mixture was incubated on ice for 30 minutes. After washing, 50 μL of a PI/BSA solution at 5 μg/mL was added to each well and the mixture was incubated on ice for 5 minutes. Then excess secondary antibody was washed away with 0.5% BSA, the cells were resuspended by adding a PBS solution, and binding of the antibody to the cells was detected using a flow cytometer (Intellicyte iQue).

Test [2] addresses T2, cynomolgus monkey CCR8 (cynomolgus monkey, UniProt O97665 1-356 (rhesus entry)).
T2 construct: Full-length, stably expressed on CHO cells; also called cynoCCR8; CHO-cynoCCR8
As to the kind of experiment: flow cytometry of purified Fab on cells stably expressing cynomolgus monkey CCR8. The procedure: as §1
On the technique in general: A flow cytometer gives signals particle by particle.

Test [3] has as its target T3, human CCR8 (human, UniProt P51685 1-355). The test can be described thus: cell-based or functional assay.
Test [4] has as its target T3, human CCR8. The test can be described thus: flow cytometry, chimeric IgG on CHO-hCCR8 cells. The procedure: (§2) 5×10⁴ CHO-hCCR8 or CHO-cynoCCR8 cells were added per well in a 96-well U-shaped plate and centrifuged to discard the supernatant, 100 μL of a gradiently diluted anti-CCR8 chimeric antibody or anti-KLH isotype control antibody was added per well and the mixture was incubated on ice for 60 minutes. After the unbound primary antibody was washed away, 50 μL of a secondary antibody AlexaFluro647 anti-human IgG (Jackson Immuno Research #109-606-170) was added per well and the mixture was incubated on ice for 30 minutes. After the washing, 50 μL of 5 μg/mL of a PI/BSA solution was added to each well and the mixture was incubated on ice for 5 minutes. Then excess secondary antibody was washed away with 0.5% BSA, the cells were resuspended by adding a PBS solution, and binding of the antibody to the cells was detected using a flow cytometer (Intellicyte iQue). The fluorescence value of a Pi-negative cell population was analyzed. Cell-binding curves were fitted by Graphpad Prism 7 (FIG. 2). The chimeric antibodies of 87D8, 102H5, 109F6, 110G2, 113B3, 139A9, 144D2, etc. all bound with high affinities to human CCR8+ cells CHO-hCCR8 and cynomolgus monkey CCR8+ cells CHO-cynoCCR8.

Test [5] deals with T2, cynomolgus monkey CCR8. As to the kind of experiment: flow cytometry, chimeric IgG on CHO-cynoCCR8 cells. Here is the method:
as §2

The target of test [6] is T3, human CCR8. The test can be described thus: flow cytometry on CHO-hCCR8 cells, parental chimeric antibody. Here is the method: (§3) 5×10⁴ CHO-hCCR8 or CHO-cynoCCR8 cells were added per well in a 96-well U-shaped plate and centrifuged to discard the supernatant. 100 μL of a gradiently diluted anti-CCR8 chimeric antibody was added per well and the mixture was incubated on ice for 60 minutes. After the unbound primary antibody was washed away, 50 μL, of a secondary antibody AlexaFluro647 anti-human IgG (Jackson Immuno Research #109-606-170) was added per well and the mixture was incubated on ice for 30 minutes. After the washing, 50 μL of 5 μg/mL of a Pi/BSA solution was added to each well and the mixture was incubated on ice for 5 minutes. Then excess secondary antibody was washed away with 0.5% BSA, the cells were resuspended by adding a PBS solution, and binding of the antibody to the cells was detected using a flow cytometer (BD Celesta). The fluorescence value of a PI-negative cell population was analyzed. Cell-binding curves were fitted by Graphpad Prism 7.

The target of test [7] is T2, cynomolgus monkey CCR8. The test can be described thus: flow cytometry on CHO-cynoCCR8 cells, parental chimeric antibody. Here is the method:
as §3

The target of test [8] is T3, human CCR8. The test can be described thus: cell-based or functional assay. This is another data set of the same source.
Test [9] concerns the target T3, human CCR8. As to the kind of experiment: cell-based or functional assay. This is another data set of the same source.
Test [10] deals with T3, human CCR8. As to the kind of experiment: flow cytometry on CHO-hCCR8 cells. Here is the method:
as §3

Test [11] addresses T2, cynomolgus monkey CCR8. The test can be described thus: flow cytometry on CHO-cynoCCR8 cells. The procedure: as §3
Test [12] deals with T4, FcγRIIIAF158 (UniProt P08637 17-208).
T4 construct: F158 allotype; also called FcγRIIIA158F
T4 sequence (P08637 17-208 limits assumed): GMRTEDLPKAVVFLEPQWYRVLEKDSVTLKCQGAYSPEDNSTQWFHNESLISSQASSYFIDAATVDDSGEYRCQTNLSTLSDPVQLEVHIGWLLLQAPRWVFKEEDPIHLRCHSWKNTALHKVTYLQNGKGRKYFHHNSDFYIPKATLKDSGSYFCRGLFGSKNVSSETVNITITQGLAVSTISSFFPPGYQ
The test can be described thus: SPR (Biacore T200), antibody captured by anti-human IgG F(ab')2 on CM5, FcγRIIIA as analyte; FcγRIIIAF158. Here is the method:
(§4) The affinities of the Fc function-enhanced humanized CCR8 antibodies to FcγRIIIAV158 and FcγRIIIAF158 were detected by using a surface plasmon resonance technology (SPR/Biacore T200). A coupling reagent Amine Coupling Kit (GE Healthcare BR-1000-50) was used to couple Goat Anti-Human IgG F(ab′)2 to the surface of a CM5 chip. h87D8 H2K4 e5 or h87D8 H2K4 was captured through high-affinity binding with the antibodies and then gradiently diluted FcγRIIIAV158 or FcγRIIIAF158 was injected in sequence. The binding time was set to be 120 seconds, the dissociation time was set to be 200 seconds, regeneration was performed for 30 seconds by 10 mM Glycine-HCl with the pH value of 1.75, and the flow rate was set to be […]. The measured data were fitted to obtain an equilibrium dissociation constant. The affinities of h87D8 H2K4 e5 or h87D8 H2K4 to FcγRIIIAV158 and FcγRIIIAF158 were respectively measured. […] The binding of h87D8 H2K4 e5 to FcγRIIIAV158 and FcγRIIIAF158 was stronger than that of h87D8 H2K4.

The target of test [13] is T5, FcγRIIIAV158 (UniProt P08637 17-208).
T5 construct: V158 allotype; also called FcγRIIIA158V
T5 sequence (P08637 17-208 F176V limits assumed): as the sequence (P08637 17-208 limits assumed) above, with F160V counted along it
The test can be described thus: SPR (Biacore T200), antibody captured by anti-human IgG F(ab')2 on CM5, FcγRIIIA as analyte; FcγRIIIAV158. Here is the method: as §4

T2 sequence (O97665 other isoform, or with tags, fused parts or gaps): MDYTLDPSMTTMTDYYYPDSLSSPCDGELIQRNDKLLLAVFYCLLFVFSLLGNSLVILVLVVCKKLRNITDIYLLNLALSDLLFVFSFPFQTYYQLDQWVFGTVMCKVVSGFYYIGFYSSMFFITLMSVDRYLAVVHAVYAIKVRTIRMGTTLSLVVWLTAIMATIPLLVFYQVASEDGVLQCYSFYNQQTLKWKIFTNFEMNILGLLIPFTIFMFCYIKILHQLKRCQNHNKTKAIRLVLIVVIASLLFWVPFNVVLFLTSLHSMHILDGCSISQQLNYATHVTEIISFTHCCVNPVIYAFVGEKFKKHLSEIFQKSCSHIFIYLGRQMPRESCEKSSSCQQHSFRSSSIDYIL
T3 sequence (P51685 whole entry): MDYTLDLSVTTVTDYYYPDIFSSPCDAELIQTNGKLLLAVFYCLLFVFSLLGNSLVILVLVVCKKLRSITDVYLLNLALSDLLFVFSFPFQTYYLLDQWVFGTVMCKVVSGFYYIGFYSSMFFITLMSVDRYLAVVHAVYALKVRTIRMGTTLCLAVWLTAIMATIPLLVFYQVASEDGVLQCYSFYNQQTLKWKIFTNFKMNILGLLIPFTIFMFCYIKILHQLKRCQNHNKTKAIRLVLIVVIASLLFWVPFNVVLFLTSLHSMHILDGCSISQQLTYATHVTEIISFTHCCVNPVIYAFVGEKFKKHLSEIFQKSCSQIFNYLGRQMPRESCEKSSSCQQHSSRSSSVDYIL

B1: 29A8 Fab antibody (Fab, V domains shown)
VH: EVQLVESGGGLVQPKGSLKLSCAASGFTFNAFAMNWVRQAPGKGLEWVARIRSKSNNYATYYADSVIDRFTISRDDSQSMLYLQMNNLKTEDTAMYYCVRGKEAGAYYAMDYWGQGTSVTVSS
VL: DIVMTQAAPSVPVTPGESVSISCRSSKSLLHSNGNTYLYWFLQRPGQSPQLLIYRMSNLASGVPDRFSGSGSGTAFTLRISKVEAEDVGVYYCMQHLEYPFTFGGGTKLEIK
notes: detected with anti-human IgG F(ab')2; also called clone 29A8
Turning to B1, the results for the binding result in [1] and in [2] were “no binding” and “binds”, respectively.

B2: 144D2 anti-CCR8 chimeric antibody (antibody, V domains shown)
VH: EVQLVESGGGLVQPKGSLKLSCAASGFTFNAFAMNWVRQAPGKGLEWVARIRSKSNNYATYYADSVIDRFTISRDDSQSMLYLQMNNLKTEDTAMYYCVRGKEAGAYYAMDYWGQGTSVTVSS
VL: DIVMTQAAPSVPVTPGESVSISCRSSKSLLHSNGNTYLYWFLQRPGQSPQLLIYRMSNLASGVPDRFSGSGSGTAFTLRISRVEAEDVGVYYCMQHLEYPLTFGAGTKLEIK
Usually EC50 stands for the midpoint of the concentration-response curve. Take B2: in test [3], the “ADCC EC50 (nM), NK92-CD16A effectors, HEK293-hCCR8 targets, LDH release” value came to 0.07 nM. The EC50 in test [4] came out at 1.08 nM; in [5], 2.75 nM; in test [6], 0.88 nM; in [7], 1.32 nM.

B3: 87D8 anti-CCR8 chimeric antibody (antibody, V domains shown)
VH: EVQLVESGGGLVQPKGSLRLSCAASGFTFNTYAMNWVRQAPGKGLEWIARIRSKSNNYATYYADSVKDRFTISRDDSQSMLYLQMNNLKTEDTAMYYCVRGKEAGAYYAMDYWGQGTSVTVSS
VL: DIVMTQAAPSVPVTPGESVSISCRSSKSLLHSNGNTYLYWFLQRPGQSPQLLIYRMSNLASGVPDRFSGSGSGTAFTLRISRVEAEDVGVYYCMQHLEYPLTFGAGTKLELK
Regarding B3, in [8], the “ADCC maximal lysis rate, NK92-CD16A effectors, HEK293-hCCR8 targets” value stood at 33%. Also, the “ADCC EC50 (nM), NK92-CD16A effectors, HEK293-hCCR8 targets, LDH release” value in test [3] amounted to 0.1 nM. Moreover, in [9], the “ADCC EC50 (nM), PBMC FcγRIIIA158F/F effectors, HEK293-hCCR8 targets” value was found to be 0.08 nM; the “ADCC EC50 (nM), PBMC FcγRIIIA158V/V effectors, HEK293-hCCR8 targets” value was determined as 0.05 nM; the “ADCC maximal lysis rate, PBMC FcγRIIIA158F/F effectors, HEK293-hCCR8 targets” value was 68%; the “ADCC maximal lysis rate, PBMC FcγRIIIA158V/V effectors, HEK293-hCCR8 targets” value is 76%. Further, in test [4], the midpoint of the response, the EC50, lay at 0.71 nM. Moreover, in test [5], the EC50 worked out at 1.92 nM. Moreover, the concentration for a half-maximal effect (EC50) in [6] worked out at 0.57 nM. In addition, in test [7], the EC50 was determined as 1.78 nM.

B4: 30A7 Fab antibody (Fab, V domains shown)
VH: QVQLVESGGGLVQPKGSLKLSCAASGFTFNTYAMNWVRQAPGKGLEWVARIRSKSNYYATYYADSVKDRFTISRDDSQSMLYLQMNNLKTEDTAMYYCLRGKEAGAYYAMDYWGQGTSVTVSS
VL: DIVMTQAAPSVPVTPGESVSISCRSSKSLLHSNGNTYLYWFLQRPGQSPQLLIYRMSNLASGVPDRFSGSGSGTAFTLRISRVEAEDVGVYYCMQHLEYPFTFGAGTKLEIK
notes: also called clone 30A7
B4: the binding result in test [1] was “no binding”; in [2], “binds”.

B5: h87D8 H2K4 hIgG1 (antibody)
heavy: not shown
light: DIVMTQSPLSLPVTPGEPASISCRSSKSLLHSNYNTYLYWFLQKPGQSPQLLIYRTSNLASGVPDRFSGSGSGTDFTLKISRVEAEDVGVYYCMQHLEYPLTFGQGTKLEIKRTVAAPSVFIFPPSDEQLKSGTASVVCLLNNFYPREAKVQWKVDNALQSGNSQESVTEQDSKDSTYSLSSTLTLSKADYEKHKVYACEVTHQGLSSPVTKSFNRGEC
notes: Humanized, wild-type human IgG1 Fc; also called h87D8 VHv2+h87D8 VKv4; copies: 2 + 2
The Kd is the equilibrium constant for the complex coming apart. As for B5, the EC50 in test [10] was found to be 0.68 nM; in test [11], 2.28 nM. In addition, the Kd was 1300 nM in test [12] and 861 nM in [13].

B6: h87D8 H1K1 (antibody, human IgG1, V domains shown)
VH: EVQLVESGGGLVQPGGSLRLSCAASGFTFNTYAMNWVRQAPGKGLEWVARIRSKSNNYATYYADSVKGRFTISRDDSQSSLYLQMNSLRAEDTAVYYCVRGKEAGAYYAMDYWGQGTLVTVSS
VL: DIVMTQSPLSLPVTPGEPASISCRSSKSLLHSNGNTYLYWFLQKPGQSPQLLIYRMSNLASGVPDRFSGSGSGTDFTLKISRVEAEDVGVYYCMQHLEYPLTFGQGTKLEIK
notes: Humanized; also called h87D8 VHv1+h87D8 VKv1
B6: the “ADCC half-maximal effective concentration (EC50), NK92-CD16A effectors, HEK293-hCCR8 targets” value in test [8] came out at 0.01 nM. In addition, the results for the concentration for a half-maximal effect (EC50) in test [10] and in test [11] were 0.53 nM and 1.19 nM, respectively.

B7: h144D2 H1K1 (antibody, human IgG1, V domains shown)
VH: EVQLVESGGGLVQPGGSLRLSCAASGFTFNAFAMNWVRQAPGKGLEWVARIRSKSNNYATYYADSVKGRFTISRDDSQSSLYLQMNSLRAEDTAVYYCVRGKEAGAYYAMDYWGQGTLVTVSS
VL: DIVMTQSPLSLPVTPGEPASISCRSSKSLLHSNGNTYLYWFLQKPGQSPQLLIYRMSNLASGVPDRFSGSGSGTDFTLKISRVEAEDVGVYYCMQHLEYPLTFGQGTKLEIK
notes: Humanized; also called h144D2 VHv1+h87D8 VKv1
For the molecule B7, the “ADCC half-maximal effective concentration (EC50), NK92-CD16A effectors, HEK293-hCCR8 targets” value in test [8] came to 0.02 nM. In addition, the concentration giving a half-maximal response (EC50) is 0.89 nM in [10] and 1.16 nM in test [11].
